Test results: patent US20240327535A1 (EISAI R AND D MANAGEMENT, published 2024)
Where two headings read alike, the source gives them in different places.

What was measured:
Test in all cases: Octet BLI; Fab 200 nM
[1] = molecular target: T1, extracellular domain of rhesus monkey BCMA (rhesus monkey, UniProt F7FFA0 1-53)
T1 construct: extracellular domain; also called RhBCMA

[2] = molecular target: T2, extracellular domain of human BCMA (human, UniProt Q02223 1-54)
T2 construct: amine-linked to Octet AR2G tips; also called hsBCMA; BCMA (human)
T2 sequence: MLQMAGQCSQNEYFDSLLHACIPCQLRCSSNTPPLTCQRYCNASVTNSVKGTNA

[3] = molecular target: T1, extracellular domain of rhesus monkey …; remark: listed apart in the source
[4] = molecular target: T2, extracellular domain of human BCMA; remark: listed apart in the source

T1 sequence (F7FFA0 entry or part of it): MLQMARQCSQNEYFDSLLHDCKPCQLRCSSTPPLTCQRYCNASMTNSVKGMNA

B1: AB200-(2Vk30)_R2-VH-v13 (Fab, V domains shown)
VH: QVQLVQSGAEVKKPGSSVKVSCKASGGSFSNYWIHWVRQAPGQGLEWMGGTYRSHSDTYYAQKFKSRVTITADKSTSTAYMELSSLRSEDTAVYYCARGAIYHGYDVIENWGQGTLVTVSS
VL: DIQMTQSPSSLSASVGDRVTITCRASQSISSYLNWYQQKPGKAPKLLIYATSNLQIGVPSRFSGSGSGTDFTLTISSLQPEDFATYYCQQYRRIPWTFGQGTKLEIKR
Kd [1]: 144 nM | Kd [2]: 44.7 nM

B2: AB200-(2Vk30)_R2-VH-v71 (Fab, V domains shown)
VH: QVQLVQSGAEVKKPGSSVKVSCKASGGTFSNYWIHWVRQAPGQGLEWMGATYRIHSDTNYNEKFKSRVTITADKSTSTAYMELSSLRSEDTAVYYCARGAIFHGYDVIDNWGQGTLVTVSS
VL: DIQMTQSPSSLSASVGDRVTITCRASQSISSYLNWYQQKPGKAPKLLIYATSNLQIGVPSRFSGSGSGTDFTLTISSLQPEDFATYYCQQYRRIPWTFGQGTKLEIKR
Kd [1]: 64.1 nM | Kd [2]: 29.7 nM

B3: AB200-(2Vk30)_R2-VH-v43 (Fab, V domains shown)
VH: QVQLVQSGAEVKKPGSSVKVSCKASGGTFTNYWIHWVRQAPGQGLEWMGGTYRIHSDTYYAQKFKSRVTITADKSTSTAYMELSSLRSEDTAVYYCARGAIYHGFDVIDNWGQGTLVTVSS
VL: DIQMTQSPSSLSASVGDRVTITCRASQSISSYLNWYQQKPGKAPKLLIYATSNLQIGVPSRFSGSGSGTDFTLTISSLQPEDFATYYCQQYRRIPWTFGQGTKLEIKR
Kd [1]: 25.8 nM | Kd [2]: 6.82 nM

B4: AB200-(2Vk30)_R2-VH-v23 (Fab, V domains shown)
VH: QVQLVQSGAEVKKPGSSVKVSCKASGGTFSNYWIHWVRQAPGQGLEWMGGTYRSHSDTYYNQKYKSRVTITADKSTSTAYMELSSLRSEDTAVYYCARGAIFHGYDVIDNWGQGTLVTVSS
VL: DIQMTQSPSSLSASVGDRVTITCRASQSISSYLNWYQQKPGKAPKLLIYATSNLQIGVPSRFSGSGSGTDFTLTISSLQPEDFATYYCQQYRRIPWTFGQGTKLEIKR
Kd [1]: 25.9 nM | Kd [2]: 6.89 nM

B5: AB200-(2Vk30)_R2-VH-v74 (Fab, V domains shown)
VH: QVQLVQSGAEVKKPGSSVKVSCKASGGTFSNYWIHWVRQAPGQGLEWMGATYRIHSDTYYAEKFKSRVTITADKSTSTAYMELSSLRSEDTAVYYCARGAIYHGFDVIDNWGQGTLVTVSS
VL: DIQMTQSPSSLSASVGDRVTITCRASQSISSYLNWYQQKPGKAPKLLIYATSNLQIGVPSRFSGSGSGTDFTLTISSLQPEDFATYYCQQYRRIPWTFGQGTKLEIKR
Kd [1]: 9.83 nM | Kd [2]: 2.17 nM

B6: AB200-(2Vk30)_R2-VH-v40 (Fab, V domains shown)
VH: QVQLVQSGAEVKKPGSSVKVSCKASGGTFTNYWIHWVRQAPGQGLEWMGATYRIHSTTYYAQKFKSRVTITADKSTSTAYMELSSLRSEDTAVYYCARGAIYHGFDVIDNWGQGTLVTVSS
VL: DIQMTQSPSSLSASVGDRVTITCRASQSISSYLNWYQQKPGKAPKLLIYATSNLQIGVPSRFSGSGSGTDFTLTISSLQPEDFATYYCQQYRRIPWTFGQGTKLEIKR
Kd [1]: 32.5 nM | Kd [2]: 15.5 nM

B7: AB200-(2Vk30)_R2-VH-v67 (Fab, V domains shown)
VH: QVQLVQSGAEVKKPGSSVKVSCKASGGTFSNYWIHWVRQAPGQGLEWMGATYRIHSTTYYNEKFKSRVTITADKSTSTAYMELSSLRSEDTAVYYCARGAVYHGYDVIDNWGQGTLVTVSS
VL: DIQMTQSPSSLSASVGDRVTITCRASQSISSYLNWYQQKPGKAPKLLIYATSNLQIGVPSRFSGSGSGTDFTLTISSLQPEDFATYYCQQYRRIPWTFGQGTKLEIKR
Kd [1]: 35.7 nM | Kd [2]: 16.8 nM

B8: AB200-(2Vk30)_R2-VH-v31 (Fab, V domains shown)
VH: QVQLVQSGAEVKKPGSSVKVSCKASGGTFSNYWIHWVRQAPGQGLEWMGATYRSQSDTNYNQKFKSRVTITADKSTSTAYMELSSLRSEDTAVYYCARGAVYHGYDVIDNWGQGTLVTVSS
VL: DIQMTQSPSSLSASVGDRVTITCRASQSISSYLNWYQQKPGKAPKLLIYATSNLQIGVPSRFSGSGSGTDFTLTISSLQPEDFATYYCQQYRRIPWTFGQGTKLEIKR
Kd [1]: 38.4 nM | Kd [2]: 12.9 nM

B9: AB200-(2Vk30)_R2-VH-v65 (Fab, V domains shown)
VH: QVQLVQSGAEVKKPGSSVKVSCKASGGTFSNYWIHWVRQAPGQGLEWMGATYRIQSTTYYNQKFKSRVTITADKSTSTAYMELSSLRSEDTAVYYCARGAIYHGFDVIDNWGQGTLVTVSS
VL: DIQMTQSPSSLSASVGDRVTITCRASQSISSYLNWYQQKPGKAPKLLIYATSNLQIGVPSRFSGSGSGTDFTLTISSLQPEDFATYYCQQYRRIPWTFGQGTKLEIKR
Kd [1]: 46.8 nM | Kd [2]: 27.3 nM

B10: AB200-(2Vk30)_R2-VH-v39 (Fab, V domains shown)
VH: QVQLVQSGAEVKKPGSSVKVSCKASGGTFTNYWIHWVRQAPGQGLEWMGATYRIHSDTYYAEKFKSRVTITADKSTSTAYMELSSLRSEDTAVYYCARGAIFHGYDVIDNWGQGTLVTVSS
VL: DIQMTQSPSSLSASVGDRVTITCRASQSISSYLNWYQQKPGKAPKLLIYATSNLQIGVPSRFSGSGSGTDFTLTISSLQPEDFATYYCQQYRRIPWTFGQGTKLEIKR
Kd [1]: 15.4 nM | Kd [2]: 3 nM

B11: AB200-(2Vk30)_R2-VH-v59 (Fab, V domains shown)
VH: QVQLVQSGAEVKKPGSSVKVSCKASGGTFSNYWIHWVRQAPGQGLEWMGGTYRIHSDTYYAQKFKSRVTITADKSTSTAYMELSSLRSEDTAVYYCARGAIYHGYDVIENWGQGTLVTVSS
VL: DIQMTQSPSSLSASVGDRVTITCRASQSISSYLNWYQQKPGKAPKLLIYATSNLQIGVPSRFSGSGSGTDFTLTISSLQPEDFATYYCQQYRRIPWTFGQGTKLEIKR
Kd [1]: 121 nM | Kd [2]: 37.8 nM

B12: AB200-(2Vk35)_R2-VH-v8 (Fab, V domains shown)
VH: QVQLVQSGAEVKKPGSSVKVSCKASGGTYSNYWIHWVRQAPGQGLEWMGGTYRSQSDTYYNQKFKSRVTITADKSTSTAYMELSSLRSEDTAVYYCARGAIYHGFDVIDNWGQGTLVTVSS
VL: DIQMTQSPSSLSASVGDRVTITCRASQSISSYINWYQQKPGKAPKLLIYATSNLQSGVPSRFSGSGSGTDFTLTISSLQPEDFATYYCQQYRRIPWTFGQGTKLEIKR
Kd [3]: 38 nM | Kd [4]: 12.1 nM

B13: AB200-(2Vk35)_R2-VH-v15 (Fab, V domains shown)
VH: QVQLVQSGAEVKKPGSSVKVSCKASGGSFSNYWIHWVRQAPGQGLEWMGATYRSQSTTYYNQKFKSRVTITADKSTSTAYMELSSLRSEDTAVYYCARGAIFHGYDVIDNWGQGTLVTVSS
VL: DIQMTQSPSSLSASVGDRVTITCRASQSISSYINWYQQKPGKAPKLLIYATSNLQSGVPSRFSGSGSGTDFTLTISSLQPEDFATYYCQQYRRIPWTFGQGTKLEIKR
Kd [3]: 48.6 nM | Kd [4]: 25.5 nM

B14: AB200-(2Vk35)_R2-VH-v9 (Fab, V domains shown)
VH: QVQLVQSGAEVKKPGSSVKVSCKASGGTYSNYWIHWVRQAPGQGLEWMGATYRSQSDTNYNQKFKSRVTITADKSTSTAYMELSSLRSEDTAVYYCARGAIYHGFDVIDNWGQGTLVTVSS
VL: DIQMTQSPSSLSASVGDRVTITCRASQSISSYINWYQQKPGKAPKLLIYATSNLQSGVPSRFSGSGSGTDFTLTISSLQPEDFATYYCQQYRRIPWTFGQGTKLEIKR
Kd [3]: 103 nM | Kd [4]: 49.3 nM

B15: AB200-(2Vk30)_R2-VH-v51 (Fab, V domains shown)
VH: QVQLVQSGAEVKKPGSSVKVSCKASGGSFSNYWIHWVRQAPGQGLEWMGGTYRIQSDTYYNQKFKSRVTITADKSTSTAYMELSSLRSEDTAVYYCARGAIYHGYDVIENWGQGTLVTVSS
VL: DIQMTQSPSSLSASVGDRVTITCRASQSISSYLNWYQQKPGKAPKLLIYATSNLQIGVPSRFSGSGSGTDFTLTISSLQPEDFATYYCQQYRRIPWTFGQGTKLEIKR
Kd [1]: 68.9 nM | Kd [2]: 20.3 nM

B16: AB200-(2Vk30)_R2-VH-v16 (Fab, V domains shown)
VH: QVQLVQSGAEVKKPGSSVKVSCKASGGSFSNYWIHWVRQAPGQGLEWMGGTYRSHSDTNYNQKFKSRVTITADKSTSTAYMELSSLRSEDTAVYYCARGAIFHGYDVIDNWGQGTLVTVSS
VL: DIQMTQSPSSLSASVGDRVTITCRASQSISSYLNWYQQKPGKAPKLLIYATSNLQIGVPSRFSGSGSGTDFTLTISSLQPEDFATYYCQQYRRIPWTFGQGTKLEIKR
Kd [1]: 178 nM | Kd [2]: 74.6 nM

B17: AB200-(2Vk30)_R2-VH-v30 (Fab, V domains shown)
VH: QVQLVQSGAEVKKPGSSVKVSCKASGGTFSNYWIHWVRQAPGQGLEWMGATYRSHSDTNYAQKFKSRVTITADKSTSTAYMELSSLRSEDTAVYYCARGAIYHGYDVIENWGQGTLVTVSS
VL: DIQMTQSPSSLSASVGDRVTITCRASQSISSYLNWYQQKPGKAPKLLIYATSNLQIGVPSRFSGSGSGTDFTLTISSLQPEDFATYYCQQYRRIPWTFGQGTKLEIKR
Kd [1]: 141 nM | Kd [2]: 50.4 nM

B18: AB200-(2Vk30)_R2-VH-v45 (Fab, V domains shown)
VH: QVQLVQSGAEVKKPGSSVKVSCKASGGTYSNYWIHWVRQAPGQGLEWMGATYRIHSTTNYNQKFKSRVTITADKSTSTAYMELSSLRSEDTAVYYCARGAIFHGYDVIDNWGQGTLVTVSS
VL: DIQMTQSPSSLSASVGDRVTITCRASQSISSYLNWYQQKPGKAPKLLIYATSNLQIGVPSRFSGSGSGTDFTLTISSLQPEDFATYYCQQYRRIPWTFGQGTKLEIKR
Kd [1]: 3080 nM | Kd [2]: 720 nM

B19: AB200-(2Vk30)_R2-VH-v19 (Fab, V domains shown)
VH: QVQLVQSGAEVKKPGSSVKVSCKASGGTFSNYWIHWVRQAPGQGLEWMGGTYRSHSTTYYNQKFKSRVTITADKSTSTAYMELSSLRSEDTAVYYCARGAIYHGFDVIDNWGQGTLVTVSS
VL: DIQMTQSPSSLSASVGDRVTITCRASQSISSYLNWYQQKPGKAPKLLIYATSNLQIGVPSRFSGSGSGTDFTLTISSLQPEDFATYYCQQYRRIPWTFGQGTKLEIKR
Kd [1]: 25.4 nM | Kd [2]: 14.6 nM

B20: AB200-(2Vk35)_R2-VH-v11 (Fab, V domains shown)
VH: QVQLVQSGAEVKKPGSSVKVSCKASGGTYSNYWIHWVRQAPGQGLEWMGATYRSHSDTNYNEKFKSRVTITADKSTSTAYMELSSLRSEDTAVYYCARGAVYHGYDVIDNWGQGTLVTVSS
VL: DIQMTQSPSSLSASVGDRVTITCRASQSISSYINWYQQKPGKAPKLLIYATSNLQSGVPSRFSGSGSGTDFTLTISSLQPEDFATYYCQQYRRIPWTFGQGTKLEIKR
Kd [3]: 130 nM | Kd [4]: 47 nM
